Measured values reported in PMC5725882.

Target: full-length wild-type p97 (^FLp97^wt) (UniProt P55072)
Experiment: GST pull-down
Conditions: 2 mM AMP-PNP; n=3; parent: est. 1.0; read off a plot

full-length wild-type p97 (^FLp97^wt), sequence (P55072 whole entry): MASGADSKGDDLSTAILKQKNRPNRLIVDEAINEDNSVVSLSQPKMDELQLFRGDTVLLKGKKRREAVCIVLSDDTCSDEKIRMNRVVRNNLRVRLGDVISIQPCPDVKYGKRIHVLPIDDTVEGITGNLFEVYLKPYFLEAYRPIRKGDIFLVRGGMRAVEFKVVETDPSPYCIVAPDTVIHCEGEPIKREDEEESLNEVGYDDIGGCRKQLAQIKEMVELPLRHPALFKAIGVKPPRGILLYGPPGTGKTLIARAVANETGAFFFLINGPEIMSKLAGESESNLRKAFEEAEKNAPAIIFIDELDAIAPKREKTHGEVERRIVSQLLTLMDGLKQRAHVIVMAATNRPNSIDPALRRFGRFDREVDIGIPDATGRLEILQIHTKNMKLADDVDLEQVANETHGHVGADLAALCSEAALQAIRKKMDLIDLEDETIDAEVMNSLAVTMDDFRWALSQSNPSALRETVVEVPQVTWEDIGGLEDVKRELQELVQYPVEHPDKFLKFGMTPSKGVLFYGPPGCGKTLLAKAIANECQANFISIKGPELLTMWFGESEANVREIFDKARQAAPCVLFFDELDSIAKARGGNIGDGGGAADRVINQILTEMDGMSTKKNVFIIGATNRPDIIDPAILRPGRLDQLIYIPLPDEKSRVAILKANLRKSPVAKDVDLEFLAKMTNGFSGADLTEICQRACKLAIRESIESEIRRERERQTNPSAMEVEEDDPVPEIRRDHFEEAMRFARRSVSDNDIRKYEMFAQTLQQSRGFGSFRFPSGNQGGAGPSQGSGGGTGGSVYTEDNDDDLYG

Substance	ratio to parent
GST-tagged VIMP-N10 K77A	0.8
GST-tagged VIMP-N10 L82A	0.14
GST-tagged VIMP-N10 Q79A	0.87
GST-tagged VIMP-N10 R78A	0.24
GST-tagged VIMP-N10 R86A	0.07
GST-tagged VIMP-N10 V97A	0.04

Second part, the substance after the results:

ratio to parent	Substance
0.14	GST-tagged VIMP-N10 K88A
0.17	GST-tagged VIMP-N10 L93A
0.24	GST-tagged VIMP-N10 M89A

Target: Np97 (N domain alone of wild-type p97) (UniProt P55072)
Experiment: ITC; VIMPx titrated into p97; iTC200, 25 C; 50 mM Tris pH 8.0, 150 mM NaCl, 2 mM MgCl2, 5% glycerol; no nucleotide added; one-site model
Conditions: not given

Np97 (N domain alone of wild-type p97), sequence (P55072 whole entry): as above

Kd	stoichiometry N	Substance
6.58 µM	1.27	VIMPx (VCP-interacting membrane protein, residues 49-122) (from UniProt Q9BQE4 49-122) (domain or fragment)

Target: VIMP of canine pancreas microsomes (dog (endogenous in canine pancreas microsomes))
Experiment: co-IP; immunodepletion: canine pancreas microsomes solubilized in 1% deoxyBigCHAP, supernatant incubated three times with Protein A beads containing anti-VIMP antibodies; unbound fractions immunoblotted
Conditions: not given

percent of microsome-associated p97 lost by co-depletion with VIMP	Substance
< 90%	ER membrane-associated p97 of canine pancreas microsomes (natural protein)
